Where no end group is shown, it is not given here. [ ]: non-standard residue; d: D form. The star is where a group is joined. MPB‑DPPE = 1,2-dipalmitoyl-sn-glycero-3-phosphoethanolamine-N-[4-(p-maleimidophenyl)butyramide], CCCCCCCCCCCCCCCC(=O)OC[C@H](COP(=O)(O)OCCNC(=O)CCCc1ccc(N2C(=O)CC(*)C2=O)cc1)OC(=O)CCCCCCCCCCCCCCC; pS = N[C@@H](COP(=O)(O)O)C(=O)O

Among the data in paper PMC3655264 (2010) are Kd values, retold here.

In test [1] the target is β2^PIP-Core (AP2 core with β2 Lys5, Lys12, Lys26, Lys27, Lys29, Lys36 mutated to glutamate) (UniProt P63010 1-592; P84092 1-236; P84092 237-435; P62743 1-142, Lys5 to glutamate | Lys12 to glutamate | Lys26 to glutamate | Lys27 to …). As to the kind of experiment: SPR; liposomes with 10% PtdIns4,5P2 + 1% TGN38. (In SPR one partner is held on a chip, and binding of the other changes the refractive index at the surface.)
Sequence of β2^PIP-Core (AP2 core with β2 Lys5, Lys12, Lys26, Lys27, Lys29, Lys36 mutated to glutamate) (P18484 other isoform, or with tags, fused parts or gaps with the stated changes, chain 1 of 4): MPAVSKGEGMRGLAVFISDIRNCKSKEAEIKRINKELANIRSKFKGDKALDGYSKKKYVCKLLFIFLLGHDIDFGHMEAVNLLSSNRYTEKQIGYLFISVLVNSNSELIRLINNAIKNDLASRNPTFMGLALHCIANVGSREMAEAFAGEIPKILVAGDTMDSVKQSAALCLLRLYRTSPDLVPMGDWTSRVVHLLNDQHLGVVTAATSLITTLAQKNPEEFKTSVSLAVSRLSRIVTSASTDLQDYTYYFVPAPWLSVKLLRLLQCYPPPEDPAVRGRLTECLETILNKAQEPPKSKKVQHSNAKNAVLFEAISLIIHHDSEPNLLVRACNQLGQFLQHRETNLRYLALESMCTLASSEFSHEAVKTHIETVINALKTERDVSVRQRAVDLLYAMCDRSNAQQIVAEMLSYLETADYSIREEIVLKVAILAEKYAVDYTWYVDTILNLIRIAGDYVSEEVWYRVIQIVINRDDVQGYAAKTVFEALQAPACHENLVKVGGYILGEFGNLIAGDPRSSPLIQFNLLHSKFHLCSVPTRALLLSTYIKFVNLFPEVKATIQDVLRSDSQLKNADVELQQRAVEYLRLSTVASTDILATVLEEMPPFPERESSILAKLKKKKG
Sequence of β2^PIP-Core (AP2 core with β2 Lys5, Lys12, Lys26, Lys27, Lys29, Lys36 mutated to glutamate) (P63010 other isoform, or with tags, fused parts or gaps with the stated changes, chain 2 of 4): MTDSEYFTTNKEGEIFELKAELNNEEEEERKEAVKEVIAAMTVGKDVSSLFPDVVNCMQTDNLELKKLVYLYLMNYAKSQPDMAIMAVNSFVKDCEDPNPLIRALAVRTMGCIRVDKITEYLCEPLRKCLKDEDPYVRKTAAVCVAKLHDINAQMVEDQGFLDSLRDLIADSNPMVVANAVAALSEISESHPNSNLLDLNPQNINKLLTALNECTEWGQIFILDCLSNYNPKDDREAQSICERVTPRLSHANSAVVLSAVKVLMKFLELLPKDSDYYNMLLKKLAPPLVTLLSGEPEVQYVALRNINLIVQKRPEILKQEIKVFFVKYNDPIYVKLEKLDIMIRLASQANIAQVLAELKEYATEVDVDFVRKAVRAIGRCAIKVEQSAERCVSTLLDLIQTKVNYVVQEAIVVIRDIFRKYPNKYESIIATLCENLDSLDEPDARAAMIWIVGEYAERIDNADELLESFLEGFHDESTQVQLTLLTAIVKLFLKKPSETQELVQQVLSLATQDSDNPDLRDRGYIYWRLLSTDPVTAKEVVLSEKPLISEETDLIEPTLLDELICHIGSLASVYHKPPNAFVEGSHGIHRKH
Sequence of β2^PIP-Core (AP2 core with β2 Lys5, Lys12, Lys26, Lys27, Lys29, Lys36 mutated to glutamate) (Q96CW1 other isoform, or with tags, fused parts or gaps with the stated changes, chain 3 of 4, further chain): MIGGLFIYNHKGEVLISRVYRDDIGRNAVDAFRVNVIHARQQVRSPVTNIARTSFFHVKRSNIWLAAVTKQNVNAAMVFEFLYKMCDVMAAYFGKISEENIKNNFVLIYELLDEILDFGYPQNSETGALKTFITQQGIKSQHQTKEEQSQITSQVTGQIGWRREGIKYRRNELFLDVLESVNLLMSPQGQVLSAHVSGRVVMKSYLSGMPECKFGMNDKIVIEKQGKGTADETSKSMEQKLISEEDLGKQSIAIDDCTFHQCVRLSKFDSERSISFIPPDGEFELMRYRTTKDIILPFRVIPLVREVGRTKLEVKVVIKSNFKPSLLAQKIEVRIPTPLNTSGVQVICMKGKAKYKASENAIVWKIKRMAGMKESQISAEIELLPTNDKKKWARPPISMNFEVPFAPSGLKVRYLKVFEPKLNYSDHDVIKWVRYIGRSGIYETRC
Sequence of β2^PIP-Core (AP2 core with β2 Lys5, Lys12, Lys26, Lys27, Lys29, Lys36 mutated to glutamate) (B2R4Z4 whole entry, stated change not applied, chain 4 of 4, further chain): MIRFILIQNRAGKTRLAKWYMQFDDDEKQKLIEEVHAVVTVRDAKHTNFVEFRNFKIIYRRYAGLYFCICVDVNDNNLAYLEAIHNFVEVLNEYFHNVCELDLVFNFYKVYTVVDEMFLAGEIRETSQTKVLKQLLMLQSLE

Test [2] addresses T1, AP2 core (recombinant; α trunk, β2 trunk, myc-tagged μ2, σ2) (UniProt P63010 1-592; P84092 1-236; P84092 237-435; P62743 1-142). As to the kind of experiment: SPR; liposomes with 10% PtdIns4,5P2 + 1% TGN38.
The target of test [3] is T2, μ2 KRR>E Core (Rattus norvegicus (alpha2, mu2), Homo …). As to the kind of experiment: SPR; liposomes with 10% PtdIns4,5P2 + 1% TGN38.
T2 sequence (chain, as listed by the source, chain 1 of 4): as the sequence (P18484 other isoform, or with tags, fused parts or gaps with the stated changes, chain 1 of 4) above
T2 sequence (chain, as listed by the source, chain 2 of 4): as the sequence (P63010 other isoform, or with tags, fused parts or gaps with the stated changes, chain 2 of 4) above, with E5K, E12K, E26K, E27K, E29K, E36K counted along it
T2 sequence (chain, as listed by the source, chain 3 of 4): as the sequence (Q96CW1 other isoform, or with tags, fused parts or gaps with the stated changes, chain 3 of 4, further chain) above, with K167E, R169E, R170E counted along it
T2 sequence (chain, as listed by the source, chain 4 of 4): as the sequence (B2R4Z4 whole entry, stated change not applied, chain 4 of 4, further chain) above
For test [4], the target named is μ2 5K>E Core. As to the kind of experiment: SPR; liposomes with 10% PtdIns4,5P2 + 1% TGN38.
The target of test [5] is α^PIP-Core (AP2 core with mutations in the PtdIns4,5P2-binding site on α) (UniProt P63010 1-592; P84092 1-236; P84092 237-435; P62743 1-142). As to the kind of experiment: SPR; liposomes with 10% PtdIns4,5P2 + 1% TGN38.
For test [6], the target named is T3, μ2^PIP-Core (AP2 core with the μ2 mutations 5K>E and KRR>E combined) (UniProt P63010 1-592; P84092 1-236; P84092 237-435; P62743 1-142). As to the kind of experiment: SPR; liposomes with 10% PtdIns4,5P2 + 1% TGN38.
Test [7] concerns the target μ2 5K>E Core. As to the kind of experiment: SPR; liposomes with 10% PtdIns4,5P2 + 1% CD4P.
Test [8] deals with T3, μ2^PIP-Core (AP2 core with the μ2 …). As to the kind of experiment: SPR; liposomes with 10% PtdIns4,5P2 + 1% CD4P.
Test [9] concerns the target T1, AP2 core (recombinant; α trunk, β2 …). As to the kind of experiment: SPR; liposomes with 10% PtdIns4,5P2 + 1% CD4P.
The target in test [10] is T2, μ2 KRR>E Core. As to the kind of experiment: SPR; liposomes with 10% PtdIns4,5P2 + 1% CD4P.

T1 sequence (chain, as listed by the source, chain 1 of 4): as the sequence (P18484 other isoform, or with tags, fused parts or gaps with the stated changes, chain 1 of 4) above
T1 sequence (P63010 1-592, chain 2 of 4): as the sequence (P63010 other isoform, or with tags, fused parts or gaps with the stated changes, chain 2 of 4) above, with E5K, E12K, E26K, E27K, E29K, E36K counted along it
T1 sequence (P84092 other isoform, or with tags, fused parts or gaps, chain 3 of 4): as the sequence (Q96CW1 other isoform, or with tags, fused parts or gaps with the stated changes, chain 3 of 4, further chain) above
T1 sequence (P62743 whole entry, chain 4 of 4): as the sequence (B2R4Z4 whole entry, stated change not applied, chain 4 of 4, further chain) above

Turning to C(MPB‑DPPE)KVTRRPKASDYQRL [lipid-linked TGN38 sorting motif peptide (CKVTRRPKASDYQRL) displayed in liposomes], the Kd – broadly, the concentration at which binding is half-saturated – in [1] was 20000 nM; in test [2] it was 320 nM; with μ2 KRR>E Core [3], 330 nM; with μ2 5K>E Core [4], 520 nM; in [5], greater than 30000 nM; in test [6], 6200 nM.

With C(1,2‑dipalmitoyl‑sn‑glycero‑3‑phosphoethanolamine‑N‑(4-(p-maleimidophenyl)butyramide))HRRRQAERM[pS]QIKRLLSEK, the dissociation constant (Kd) is 950 nM with μ2 5K>E Core [7], 2500 nM in test [8], 820 nM in test [9] and 850 nM in the test with μ2 KRR>E Core [10].
